Our source for the pKa and stoichiometry N values is publication doi:10.1101/2025.09.16.675330.

By pKa is commonly meant the pH at which an ionisable group is half protonated. In general, stoichiometry N refers to a count of units in the complex or per binding partner.

One data set has as its system Glu105. Put plainly: UV-vis. The note with it: dark (ground) state, retinal-bound wild type; cited from earlier work.
The target in data set [1] is ChR024 (cation-conducting channelrhodopsin), full-length wild type, residues M1-T280. The data set can be described thus: cryo-EM structure.

In the case of “ChR024 (cation-conducting channelrhodopsin) (not stated (uncultured organism; sequence mined from a metagenomic database, identifier IMGM3300027749|Ga0209084_1026585|Ga0209084_10265853))”, the pKa in the data set with Glu105 is given as 8.25.
Consider “ChR024 (cation-conducting channelrhodopsin), full-length wild type, residues M1-T280 (natural protein)”, for which the stoichiometry N in data set [1] is 3.
